In paper PMC10252337:

Key:
[1] = target: eel luteinizing hormone receptor D576G (constitutively activating mutant) (eel)
[2] = target: eel luteinizing hormone receptor, wild type (eel)
[3] = target: eel luteinizing hormone receptor D576G (constitutively activating mutant) (eel); remark: listed apart in the source
[4] = target: eel luteinizing hormone receptor R476H (inactivating mutant) (eel)
[5] = target: eel luteinizing hormone receptor, wild type (eel); remark: listed apart in the source

Substance | EC50 of cAMP production (HTRF) in CHO-K1 cells expressing the receptor, stimulated with rec-eel LH for 30 min [1] | EC50 of cAMP production (HTRF) in CHO-K1 cells expressing the receptor, stimulated with rec-eel LH for 30 min [2] | plateau of agonist-induced loss of cell-surface receptor (ELISA on HEK-293 cells, 0-60 min, one-phase exponential decay) [3] | t1/2 of agonist-induced loss of cell-surface receptor (ELISA on HEK-293 cells, 0-60 min, one-phase exponential decay) [3] | plateau of agonist-induced loss of cell-surface receptor (ELISA on HEK-293 cells, 0-60 min, one-phase exponential decay) [4] | t1/2 of agonist-induced loss of cell-surface receptor (ELISA on HEK-293 cells, 0-60 min, one-phase exponential decay) [4] | plateau of agonist-induced loss of cell-surface receptor (ELISA on HEK-293 cells, 0-60 min, one-phase exponential decay) [5] | t1/2 of agonist-induced loss of cell-surface receptor (ELISA on HEK-293 cells, 0-60 min, one-phase exponential decay) [5]
recombinant eel luteinizing hormone, single-chain eel LHβ/α (ligand) | 0.0948 µg/mL | 0.177 µg/mL | 59.8 % of control | 0.6 min | 61.9 % of control | 0.6 min | 64.2 % of control | 0.9 min
recombinant equine chorionic gonadotropin (from UniProt P08751 21-169; P01220 25-120) (ligand) |  |  | 46.3 % of control | 2.1 min | 42.6 % of control | 1.9 min | 56.8 % of control | 2.5 min
